Test results published in the DeepSol protein solubility set.

Assay: soluble on expression in E. coli; label from the status in PepcDB or PDB records

Soluble on expression in E. coli, not soluble:
MSLTILQELPKLSPLPARKLGSYTCKTVHMTTTELLPFHAVGTSPDAAAQADSNIETQFANVLHSLQVNKQRDPFDIIQDFKQICADRALSTRDKLSLDESNTALAEEFDNWDLEFKLWELVDRLFRFRALFSNKAKTELLREYDFSSMGIKQENFLRKNPAIRELSIIILWLQSHTPSLVGDETESYQTKWKNTAMAVANSDFDVLASRATDADLIDKLDIDAPLRSNRSIHPADESNDSKVFAQIYKLLLQDRVQDAIDIANNTGNYALALILVGATQEYFDPVLDKQDLDFDSIVAEQTKPSGIKHKLLWKKTVYKLSQQANLNKYEKLIYNYLCGGDISGNLLVASDDWEQTLLLYLSQLYSYNIDNFIVSQLSSEQEILPVNIPKPQLNTIAEILNTILHSGNLLTQQSENPLRVIMGSVMLDNVPSLLHNLTSSLTGEPEALKKPYISRVLTHLAIFQLLVVGTDNINNEDITTIITSYTSKLAEYKLPELIPIYLSFVPNEKDSREAYALFLSSLTDSSDRSKQIEISRRIANSISEVDEAMELAANTQEDKMMNVLRRTVERVMKDTESHYKPQAVIEVQDDINSVDDIDSKLYHSVEWFYENKMYEDAIVATIAIIRRFLLCGKLAPLKAFSKGKNFKLLLVEYDTQLQTKSLIFQNEPEIVTEEDKEELLAYASLIEGLILIDEWKKFVSTQINSEGHHHHHH
MGSDKIHHHHHHMTLLNMSNVQIMDVVQALSLSIERGERVGLIGESGSGKTITAMSILRLIPSSGSIVFDGADIQGLSEKQMCALRGKRISMVFQEPMTALDPLMKVGTQISHAIRIHSSVSRAQARKKADALLHSVELDPELRSRYPHELSGGQRQRILIAMALAHDPDLLICDEPTTALDVTSQKAIVDLILRLVAERGTGLLFITHDLGLVARTCERVLVMREGRIIESGTVEDVLKNPREDYTAMLVQASTLAPAPQVALSDDEVLHIDNVTKKYRGTTAVEDVTLTVHRGERLGIVGGSGSGKTTLLKMISGLSSPTSGHINTEGSMRIVFQDPMQSLDPHMSIADIVSEPLGHRDLKAVERALEEVGLDAGMMNRLPHEFSGGQRQRISIARALVSSPDILLADEPVSALDVSVRAKVLALLDRLVSERHLTMLFVSHDLHVVRSLCTTVAVMREGKIVEYGPTEDVFNNPQHEYTKALIEAIPSL
EFELKDFHVDYSISHPQSQHIQIIVCFKAQDKHEANAGRYRRIKPAWCTTEDGEHVIYYRISASRVDHDITTKYAFLDRDGKPKQIHHSEKLAVELMTLHPVIRLRDSRRFPRPSHINGDSKNARIEKRINNTCRRLLAMPGHVNKGEIRSSLDAMKTLVEHYFAFRSIGKGNPRKPRDGLFYTSPSSDKGLSQYLKETNDKQSRLLLMGLLSAYLQAKGPTDLRRCARPILIIEDPEGRLHPTHLARAWSLLQLLPMQK
MKLTKGKVLLAGCMAMAMSHSVLAQDIKVAIVGAMSGPVAQYGDMQFTGARQAIADINASGGIKGDKLVGVEYDDACDPKQAVAVANKVINDGIRYVIGHLCSSSTQPASDIYEDEGVIMITPAATNADLTTRGYKMIMRTTGLDSDQGPTAAKYIVETIKPKRIAVVHDKQQYGEGLARSVRDSLKEQGAEVVLFEGVTAGDKDFSTLVARLKKENVDFVYFGGYYPEMGQILRQAKQAGLTARFMGPEGVGNSSLSNIAGEASEGMLVTLPKRYDQVPANQPIVDALKAKKLDPTGPFVWTTYAALQSLTTAMERTGSKEPADLANDLKTGKPVETVMGPLSWDDKGDLKGFEFGIFEWHADGSSTAVK
MGHHHHHHSHMNIFIMRHGEAEVMANSDKARHLTVYGSKQAFLQGQWLKQHLSTLVINSLDRILVSPYVRAQETFHQVNQAFDLELENKFEIWEGITPYGHAHSVIDYLEVLKDEGVKSVLIVSHLPLVGEIVAELYGKRNPISFYPATIAQLLWDGNKSEILMHQASPVIYLK
MGSDKIHHHHHHMTLRLHEYVEKESFNHPYTFVAAQTGLDEKTVRDIFNARAEFLGRWHRFETPRILGIDELYLNKRYRCILTNIEERTLLDLLATRRQNVVTNYLMKLKDRQKVEIVSMDMWNPYRAAVKAVPPQARIVVDKFHVVRMANDALERVRKGLRKELKPSQSRTLKGDRKILLKRAHEVSDRERLIMETWTGAFPQLLAAYEHKERFYGIWDATTRLQAEAALDEWIATIPKGQKEVWSDLVRAVGNWREETMTYFETDMPVTNAYTESINRLAKDKNREGRGYSFEVMRARMLYTTKHKKKAPTAKVSPFYKKTIGYGLPDFAEELNYGVDLSTI
